Values quoted from earlier work as cited in US12466859B2, “Desmoglein 2 (DSG2) binding proteins and uses therefor” (UNIVERSITY OF WASHINGTON THROUGH ITS CENTER FOR …, priority 2013, dated 2025).

Key:
Settings in all cases: previous studies (37, 41, 42); cited from earlier work
[1] = test system: polarized colon cancer T84 cells
Ad3-GFP virus = test system: Ad3-GFP virus
DSG2 = molecular target: T1, DSG2 (Homo sapiens, UniProt Q14126)
T1 construct: Western blot using soluble recombinant DSG2 as a probe; purchased Leinco Technologies, Inc. (St. Louis, MO)
T1 sequence (Q14126 50-609 limits assumed): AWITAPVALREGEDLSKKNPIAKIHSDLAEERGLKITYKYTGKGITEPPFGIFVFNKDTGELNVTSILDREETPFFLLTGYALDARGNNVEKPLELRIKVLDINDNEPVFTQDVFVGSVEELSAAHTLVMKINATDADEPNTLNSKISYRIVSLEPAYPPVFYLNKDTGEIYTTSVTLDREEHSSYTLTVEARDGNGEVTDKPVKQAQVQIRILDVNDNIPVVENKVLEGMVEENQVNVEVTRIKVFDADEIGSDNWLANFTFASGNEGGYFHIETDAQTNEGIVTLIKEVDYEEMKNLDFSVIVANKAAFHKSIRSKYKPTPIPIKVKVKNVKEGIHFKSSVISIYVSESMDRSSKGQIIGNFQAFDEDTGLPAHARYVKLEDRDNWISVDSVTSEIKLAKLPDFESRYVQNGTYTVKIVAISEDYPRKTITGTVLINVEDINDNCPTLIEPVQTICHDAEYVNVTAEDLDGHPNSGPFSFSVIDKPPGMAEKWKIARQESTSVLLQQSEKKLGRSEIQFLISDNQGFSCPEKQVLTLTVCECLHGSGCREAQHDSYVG

B1: Ad3 knob monomer: Recombinant (trimeric) fiber knob with two shaft motifs, but without the dimerization domain (protein)
chain: NKLCSKLGNGLTFDSSNSIALKNNTLWTGPKPEANCIIEYGKQNPDSKLTLILVKNGGIVNGYVTLMGASDYVNTLFKNKNVSINVELYFDATGHILPDSSSLKTDLELKYKQTADFSARGFMPSTTAYPFVLPNAGTHNENYIFGQCYYKASDGALFPLEVTVMLNKRLPDSRTSYVMTFLWSLNAGLAPETTQATLITSPFTFSYIREDD
modifications: left off: small tags and cut ends
notes: Recombinant (trimeric) fiber knob with two shaft motifs, but without the dimerization domain
Junction opening [1]: does not trigger junction opening
Block of Ad3 infection (Ad3-GFP virus): not able to block Ad3 infection
Affinity of binding to DSG2 relative to JO-1 (DSG2): orders of magnitude less than JO-1
